Consider four molecules from publication PMC7826282 (Nucleic Acids Research, 2020).

The target of one test is T1, 3xFLAG-FL-NOPCHAP1 (human, UniProt Q8N5I9 1-185).
T1 sequence (looked up): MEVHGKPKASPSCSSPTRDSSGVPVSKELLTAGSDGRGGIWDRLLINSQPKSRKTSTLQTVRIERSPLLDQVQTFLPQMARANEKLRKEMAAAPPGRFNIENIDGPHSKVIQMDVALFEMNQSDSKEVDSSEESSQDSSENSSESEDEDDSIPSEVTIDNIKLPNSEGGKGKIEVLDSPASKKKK
The test is described as follows: co-IP.

Another test concerns the target RUVBL1/2 WT complex ( (human or mouse cDNA cloned), UniProt Q9Y265 1-456; Q9Y230 1-463). The test is described as follows: SPR. (In general: SPR reads the build-up and loss of mass on a sensor chip optically.)
In the next test the target is 3xFLAG-FL-RUVBL1 (WT) (mouse, UniProt P60122 1-456). Briefly: co-IP.
3xFLAG-FL-RUVBL1 (WT), sequence (P60122 whole entry): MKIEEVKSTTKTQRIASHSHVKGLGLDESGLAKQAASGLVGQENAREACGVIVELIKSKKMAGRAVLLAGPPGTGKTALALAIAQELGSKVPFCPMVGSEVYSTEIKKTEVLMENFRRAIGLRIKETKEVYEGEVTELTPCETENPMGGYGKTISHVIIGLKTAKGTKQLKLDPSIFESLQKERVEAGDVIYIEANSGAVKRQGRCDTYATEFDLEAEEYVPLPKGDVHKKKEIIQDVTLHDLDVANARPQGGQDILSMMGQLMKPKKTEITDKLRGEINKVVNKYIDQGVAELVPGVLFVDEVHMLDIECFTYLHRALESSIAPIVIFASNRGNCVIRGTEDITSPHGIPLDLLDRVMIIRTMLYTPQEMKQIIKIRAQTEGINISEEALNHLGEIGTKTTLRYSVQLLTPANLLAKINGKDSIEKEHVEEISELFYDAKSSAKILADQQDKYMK
The target in the next test is 3xFLAG-FL-RUVBL2 (WT) (mouse, UniProt Q9WTM5 1-463). The test is described as follows: co-IP.

RUVBL1/2 WT complex, sequence (Q9Y265 whole entry, one chain of several): as the sequence (P60122 whole entry) above, with V291I counted along it

B1: RL-RUVBL2-E300Q (natural protein, mouse, UniProt Q9WTM5 1-463, looked up)
chain: MATVAATTKVPEIRDVTRIERIGAHSHIRGLGLDDALEPRQASQGMVGQLAARRAAGVVLEMIREGKIAGRAVLIAGQPGTGKTAIAMGMAQALGPDTPFTAIAGSEIFSLEMSKTEALTQAFRRSIGVRIKEETEIIEGEVVEIQIDRPATGTGSKVGKLTLKTTEMETIYDLGTKMIESLTKDKVQAGDVITIDKATGKISKLGRSFTRARDYDAMGSQTKFVQCPDGELQKRKEVVHTVSLHEIDVINSRTQGFLALFSGDTGEIKSEVREQINAKVAEWREEGKAEIIPGVLFIDQVHMLDIESFSFLNRALESDMAPVLIMATNRGITRIRGTSYQSPHGIPIDLLDRLLIVSTSPYSEKDTKQILRIRCEEEDVEMSEDAYTVLTRIGLETSLRYAIQLITAASLVCRKRKGTEVQVDDIKRVYSLFLDESRSTQYMKEYQDAFLFNELKGETMDTS
Take B1: the co-IP efficiency in the test with 3xFLAG-FL-NOPCHAP1 is 0.35%.

B2: RL-RUVBL2-K83M (natural protein, mouse, UniProt Q9WTM5 1-463, looked up)
chain: MATVAATTKVPEIRDVTRIERIGAHSHIRGLGLDDALEPRQASQGMVGQLAARRAAGVVLEMIREGKIAGRAVLIAGQPGTGMTAIAMGMAQALGPDTPFTAIAGSEIFSLEMSKTEALTQAFRRSIGVRIKEETEIIEGEVVEIQIDRPATGTGSKVGKLTLKTTEMETIYDLGTKMIESLTKDKVQAGDVITIDKATGKISKLGRSFTRARDYDAMGSQTKFVQCPDGELQKRKEVVHTVSLHEIDVINSRTQGFLALFSGDTGEIKSEVREQINAKVAEWREEGKAEIIPGVLFIDEVHMLDIESFSFLNRALESDMAPVLIMATNRGITRIRGTSYQSPHGIPIDLLDRLLIVSTSPYSEKDTKQILRIRCEEEDVEMSEDAYTVLTRIGLETSLRYAIQLITAASLVCRKRKGTEVQVDDIKRVYSLFLDESRSTQYMKEYQDAFLFNELKGETMDTS
With B2, the co-IP efficiency with 3xFLAG-FL-NOPCHAP1 is 7.5%.

B3: Avi-NOPCHAP1-6xHis, biotinylated (natural protein, human, UniProt Q8N5I9 1-185, looked up)
chain: MEVHGKPKASPSCSSPTRDSSGVPVSKELLTAGSDGRGGIWDRLLINSQPKSRKTSTLQTVRIERSPLLDQVQTFLPQMARANEKLRKEMAAAPPGRFNIENIDGPHSKVIQMDVALFEMNQSDSKEVDSSEESSQDSSENSSESEDEDDSIPSEVTIDNIKLPNSEGGKGKIEVLDSPASKKKK
modifications: biotin (cellular biotinylation by BirA)
In the test with RUVBL1/2 WT complex, B3 displayed a dissociation constant Kd of 1.98 nM.

B4: RL-NOP58 (natural protein, human, UniProt Q9Y2X3 1-529, looked up)
chain: MLVLFETSVGYAIFKVLNEKKLQEVDSLWKEFETPEKANKIVKLKHFEKFQDTAEALAAFTALMEGKINKQLKKVLKKIVKEAHEPLAVADAKLGGVIKEKLNLSCIHSPVVNELMRGIRSQMDGLIPGVEPREMAAMCLGLAHSLSRYRLKFSADKVDTMIVQAISLLDDLDKELNNYIMRCREWYGWHFPELGKIISDNLTYCKCLQKVGDRKNYASAKLSELLPEEVEAEVKAAAEISMGTEVSEEDICNILHLCTQVIEISEYRTQLYEYLQNRMMAIAPNVTVMVGELVGARLIAHAGSLLNLAKHAASTVQILGAEKALFRALKSRRDTPKYGLIYHASLVGQTSPKHKGKISRMLAAKTVLAIRYDAFGEDSSSAMGVENRAKLEARLRTLEDRGIRKISGTGKALAKTEKYEHKSEVKTYDPSGDSTLPTCSKKRKIEQVDKEDEITEKKAKKAKIKVKVEEEEEEKVAEEEETSVKKKKKRGKKKHIKEEPLSEEEPCTSTAIASPEKKKKKKKKRENED
In the case of B4, the co-IP efficiency with 3xFLAG-FL-NOPCHAP1 was 0.18%; with 3xFLAG-FL-RUVBL1 (WT), < 0.1%; with 3xFLAG-FL-RUVBL2 (WT), < 0.1%. In addition, the “fold over the control IP without antibody” value with 3xFLAG-FL-NOPCHAP1 stood at 64 fold.

One may read the Kd as the free concentration of one partner at which half of the binding sites on the other are occupied at equilibrium, for simple one-to-one binding. A high value points to lower affinity.
